Experimental data published in the nanobody polyreactivity screen of Harvey et al. (2022).

Assay: yeast display, Sf9 membrane polyspecificity reagent, FACS + sequencing; frameworks hold sequencing errors
Procedure, shortened: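 Galactose-induced (36–48 hours) yeast carrying a synthetic nanobody display library were exposed to 10% biotinylated, detergent-solubilized Sf9 membrane reagent at 4 °C for 1 hour. FACS followed streptavidin microbead enrichment, using low and high (top ~1%) gates for expression (anti-HA) and reagent binding (streptavidin). Colony PCR, MiSeq 2 × 250 sequencing and CDR-length filtering followed. Labels for polyreactivity reflect the gate of origin.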

Row | Sequence | polyreactivity (PSR sort gate)
1 | QVHLVESGGGLVQAGGSLRLSCAASGSIFGYNTMGWYRQAPGKERELVATISGSGGSSYYADSVKGRFTISRDNAKNTVYLQMNSLKPEDTSVYYCAARAYSRYRRTYDYWGQGTQVTVSS | high polyreactivity
2 | QVHLVESGGGLVQAGGSLRLSCAASGSIFITYAMVWYRQAPGKERELVAAIRDSGDRTYYADSVKGRFTISRDNAKNTVYLQMNSLKPEDTAVYYCNARWQEPLKYDYWGQGTKVTVSS | low polyreactivity
3 | QVHLVESGGGLVQAGGSLRLSCAASGSIFLVYAMGWYRPAPGKERELVAVISNGGRTNYADSVKGRFTISRDNAKNTVYLQMNSLKPEDTAVYYCAVRGPTDYWADPYSAGDHWGQGTQVTVSS | high polyreactivity
4 | QVHLVESGGGLVQAGGSLRLSCAASGSIFPYYVMGWYRQAPGKERELVAAISSGGNTYYADSVKGRFTISRDNAKNTVYLQMNSLKPEDTAVYYCNADKSYFVLLFGGYDYWGQGTQVTVSS | high polyreactivity
5 | QVHLVESGGGLVQAGGSLRLSCAASGSIFRSYAMGWYRQAPGKERELVAGISWSGGSTYYADSVKGRFTISRDNAKNTVYLQMNSLKPEDTPVYYCDADIKIRLYTTGDYWGQGTQVTVSS | low polyreactivity
6 | QVHLVESGGGLVQAGGSLRLSCAASGSIFSGYAMGWYRQAPGKEREFVAAISSSGGRTYYADSVKGRFTISRDNAKNTVYLQINSLKPEDTAVYYCNARRWPFNYDYWGQGTQVTVSS | high polyreactivity
7 | QVHLVESGGGLVQAGGSLRLSCAASGSIFSSYAMGWYRQAPGKEREFVAAISWGGGSTYYADSVKGRFTISRDNAKNSVYLQMNSLKPEDTAVYYCAVETWLYPYDYWGQGTQVTVSS | high polyreactivity
8 | QVHLVESGGGLVQAGGSLRLSCAASGSIFTRYVMGWYRQAPGKERELVAAISWSGGSTYYADSVKGRFTISRDNAKNTVYLQMNSLKPEDTAVYYCAAYYWYWSAAWWDEGEMEYWGQGTQVTVSS | high polyreactivity
9 | QVHLVESGGGLVQAGGSLRLSCAASGSIFYKYVMGWYRQAPGKERELVAAISRGGGSTYYADSVKGRFTISRDNAKNTVYLQMNSLKPEDTAVYYCNAVGRPRYGHGFDHWGQGTQVTVSS | high polyreactivity
10 | QVHLVESGGGLVQAGGSLRLSCAASGSIISRYTMGWYRQAPGKERELVAAITSSGGSTYYADSVKGRFTISRDNAKNTVYLQMNSLKPEDTAVYYCNKVNRYGKFDYWGQGTQVTVSS | high polyreactivity
11 | QVHLVESGGGLVQAGGSLRLSCAASGSINYYAMGWYRQAPGKERELVAAITGSGGSTYYADSVKGRFTISRDNAKNTVYLQMNSLKPEDTAVYYCAARYGYIYGPYYYWGQGTQVTVSS | high polyreactivity
12 | QVHLVESGGGLVQAGGSLRLSCAASGSNIYNNAMGWYRQAPGTERELVAAIRSTGTRTYYADSVKGRFTISRDNAKNPVNLQMNSLKPEDTAVYYCAVGDYGLWSYDYWGQGTQVTVSS | low polyreactivity
13 | QVHLVESGGGLVQAGGSLRLSCAASGSSFRYYAMGWYRQAPGKERELVAAISGSGGRTYYADSVKGRFTISRDNEKNNVYLQMNSLKPEDTAVYYCAAQSGYYDSAYGYWGQGTKVTVSS | high polyreactivity
14 | QVHLVESGGGLVQAGGSLRLSCAASGSTFATNAMGWYRQAPGIERELVAAITDGGSTNYADSVKGRFTISRDNAKNTVYLQMNSLKPEDTAVYYCAADGFKTVLPEYDYWGQGTQVTVSS | low polyreactivity
15 | QVHLVESGGGLVQAGGSLRLSCAASGSTFDHYAMAWYRQAPGKERELVASITLSGGSTYYADSVKGRFTISRDNAKNTVYLQMNSLKPEDTAVYYCAAVVVYPYRLGYDYWGQGTQVTVSS | low polyreactivity
16 | QVHLVESGGGLVQAGGSLRLSCAASGSTFDTYAMGWYRQAPGKERELVAAISYRGGNTYYADSVKGRFTISRDNAKNTVYLQMNSLKPEDTAVYYCNAGVSIGRSRRYDYWGQGTQVTVSS | low polyreactivity
17 | QVHLVESGGGLVQAGGSLRLSCAASGSTFFKNAMGWYRQAAGKERELVAAITWSGDRTYADSVKGRFTISRDNAKYTVYLQMNSLKPEDTAVYYCNVDITGYEDDYWGQGTQVTVSS | low polyreactivity
18 | QVHLVESGGGLVQAGGSLRLSCAASGSTFIYNTMGWYRQAPGKERELVATITDSSDSTNYADSVKGRFTITRDNAKNTVYLQMNSLKPDDTAVYYCAADGEVDIATYPSQITDYDYWGQGTQVTVSS | low polyreactivity
19 | QVHLVESGGGLVQAGGSLRLSCAASGSTFPRYSMGWYRQAPGTERELVAAITQSGGRTYYADSVKGSFTISRDNAKNTVYLQMNSRKPEDTAVYYFAAEDGLRGNRLYYWGHGTQVTVSS | high polyreactivity
20 | QVHLVESGGGLVQAGGSLRLSCAASGSTFPWYARGWYRKAPGKERELVAAISGSSSTTYYADSVKGRFTISRDNAMNTVYLQMNSLKPEDTAVYYCNAVTTSGSGYGYWGQGTQVTVSS | low polyreactivity
21 | QVHLVESGGGLVQAGGSLRLSCAASGSTFRIYSMGWYRQAPGKERELVAGITGNGGSTRYADSVKGRFTISRDNAKNTVYLQMNSLKPEDTAVYYCAARWTRQRYRTSYYSWGQGTQVTVSS | high polyreactivity
22 | QVHLVESGGGLVQAGGSLRLSCAASGSTFTDYTIGWYRQAPGKERELVARIRSRGARTYYADSVKGRFTISRDNAKNTVYLQMNSLKPEDTAVNSCNKRWGCLRASPAYDYWGQGTQVTVSS | high polyreactivity

Row | Sequence | polyreactivity (PSR sort gate)
23 | QVHLVESGGGLVQAGGSLRLSCAASGSTFVHYAMGWYRQAPGKERELVADITTGDITNYADSVKGRFTISRDNAKNTVYLQMNSLKQEDTAVYSCNARTRYITSLHQYSLDYWGQGSQVTVSS | low polyreactivity
24 | QVHLVESGGGLVQAGGSLRLSCAASGSTFWGYTMGWYRQAPGKERELVAAISTIGGSTYYADSVKGRFTISRDNAKNTVYLQMNSLKTEDTAVYYCAAYKGKHYKEGYWGQGTQVTVSS | low polyreactivity
25 | QVHLVESGGGLVQAGGSLRLSCAASGSTFYYYAMGWYRQAPGKERELVAVITSGGSTNYADSVKGRFTISRDYAKNSVYLQMNSLKPEDTAVYYCNVGPSTYYQYDYWGQGTQVTVSS | high polyreactivity
26 | QVHLVESGGGLVQAGGSLRLSCAASGSTIDINAMGWYRQAPGKERELVAAISSGGITNYADSVKGRFTISRDNAKNTVYLQMNSLKPEDSAVYYCATQTYTFRWFGSPGWFDYWGQGTQVTVSS | low polyreactivity
27 | QVHLVESGGGLVQAGGSLRLSCAASGSTIRAYAMGWNRQAHVKERELVAAISYSGDSTYYADSVKGRFTISRDNAKNTVYLQMNSLKPEDTAVYYCAADYSYRHYEYDYWGQGTQVSVSS | low polyreactivity
28 | QVHLVESGGGLVQAGGSLRLSCAASGSTIRSYAMGWNRQAPGKERELVARIAYSSGGTYYADSVKGRFTISRDNAKNTVYLQMNSLKPEDTAVYYCAKPSPITSYPRFDYWGQGTQVTVSS | high polyreactivity
29 | QVHLVESGGGLVQAGGSLRLSCAASGSTLFPYAMGWYRQAPGKERELVAAISSRGGRTYYADSVKGRFTISRDNAKNTVYLQMNSLKPEVTAVYYCAAGDDYWGQGTEVTVSS | high polyreactivity
30 | QVHLVESGGGLVQAGGSLRLSCAASGSTSNYYVKVWYGQAPGKERELVASISSGGSTNYADSVKGRFSISRDNAKNSVYLQKNSLKPEDTAVYYCARRRFTHRRYRFDFWGQGTQVTVSS | high polyreactivity
31 | QVHLVESGGGLVQAGGSLRLSCAASGSTSRTYAMGWNRPQPGKERELVAAISSSGGRTTYADSVKGRFTFSRDNAKNTVSLQMNSLKPEDTAVYYCNARTYSYRGYNYWGQGTQVTVSS | high polyreactivity
32 | QVHLVESGGGLVQAGGSLRLSCAATGLTFHKYAMGWYRQSPGKERELVAAISSSGGSTYYADSVKGRFTISRDNAKNTVYLQMNSLKPEDTAVYYCATRLPYYTHAGYNYWGQGTQVTVSS | high polyreactivity
33 | QVHLVESGGGLVQAGGSLRLSCAPSGLTFPYNAMGWYRQAPGKESELVAAISRGGGTNYADSVKGRFTISRDNAKNTVYLQMNSLKPEDTAVYYCAAEYATWWGGYDYSGQGTQVTVSS | low polyreactivity
34 | QVHLVESGGGLVQAGGSLRLSCAPSGRTFFINAMGWYRQAPGKERELVAAIRVGAGSTYYADSVKGRFTISRDNAKNTVYLQMNSLKPEDTAVYYCAAKRVGSREYYWGQGTQVTVSS | high polyreactivity
35 | QVHLVESGGGLVQAGGSLRLSCASTGRISTYYTMVWYRQAPGKERELVAAISWSGTSTYYADSVKGRFTISRDNAKNTVYLQMNSLKPEDTAVYYCNAYFRPRYGYWGQGTQVTVSS | high polyreactivity
36 | QVHLVESGGGLVQAGGSLRLSCDASGSIFSVNVMGWYRQQPGKERELVAAITSGGSTHYADSVKGRFTISRDNAKNTVYLQMNSLKPEDTAVYDCAARVWYYDYWGQGTQVTVSS | high polyreactivity
37 | QVHLVESGGGLVQAGGSLRLSCPASGIIFVPNAMGWYRQAPGKEREFVAAISRSGTSTYYADSVKGRFTISRDNAKNTVYLQMNSLKPEDTAVYYCAKSAYRSYSAFGYWGQGTQVTVSS | high polyreactivity
38 | QVHLVESGGGLVQAGGSLRLSCPASGRIFYYYTMGCYRQAPGKERELVAAITSGGSTYYADSVKGRFTISRDNAKNTVYLQMYSLKQEDTAVYYCIAEFDEKYDYWGQGTQVTVSS | low polyreactivity
39 | QVHLVESGGGLVQAGGSLRLSFAASGRTFSTNAMGWYRQAPGKERELVAAISSTGGRTYYADSVKGRFTISRDNAKNTVYLQMNSLKPEDTAVYYCNTKLKGKGEGFDYWGQGTQVTVSS | high polyreactivity
40 | QVHLVESGGGLVQAGGSLRLSSAASGITFGWYAMGWYRQAPGKERELVAAIDRGGSTYYADSVKGRFTISRDNAKITVYLQMNSLKPEDTAVYYCAVELRLRYGYDYWGQGTEVTVSS | high polyreactivity
41 | QVHLVESGGGLVQAGGSLRLSSAPSGLTLETNAMGWSRQAPGKERELVAGITYSGGTTYYADSVKGRFTISRDNAKNTVYLQMNSLKPEDTAVYYCAAHTSTSGHNFWGQGTQVTVSS | low polyreactivity
42 | QVHLVESGGGLVQAGGSLRLSSDASGSTFHPYAMGLYRQAPGKERELVAAISWTGGRTYYADSVKGRFTISRDYAKNTVYLQMNRLKREDTAVYYCAARTYGKVGYWGQGTQVTVSS | high polyreactivity
43 | QVHLVESGGGLVQAGGSLRLSSSASGIIFGRNTMGWYRQAPGKEREMVAAITSSGITYYADSVKGRFTISRDNAKNTVYFQMNSLKPEDTAVYYCYSDWTYADPNEYGYWGQGTQVTVSS | low polyreactivity
